The results in this text go back to US20090005257A1 (published 2009).

First the molecules themselves.
B1: DP47 F27D/F29V (other, name in Kabat numbering)
VH: EVQLLESGGGLVQPGGSLRLSCAASGDTVSSYAMSWVRQAPGKGLEWVSAISGSGGSTYYADSVKGRFTISRDNSKNTLYLQMNSLRAEDTAVYYCAKSYGAFDYWGQGTLVTVSS
B2: DP47 F27D/F29V/Y32D/S35G (other, name in Kabat numbering)
VH: EVQLLESGGGLVQPGGSLRLSCAASGDTVSSDAMGWVRQAPGKGLEWVSAISGSGGSTYYADSVKGRFTISRDNSKNTLYLQMNSLRAEDTAVYYCAKSYGAFDYWGQGTLVTVSS
notes: kept apart as printed
B3: DP47 S30N/A33D (other, name in Kabat numbering)
VH: EVQLLESGGGLVQPGGSLRLSCAASGFTFNSYDMSWVRQAPGKGLEWVSAISGSGGSTYYADSVKGRFTISRDNSKNTLYLQMNSLRAEDTAVYYCAKSYGAFDYWGQGTLVTVSS
notes: also called A33D/S30N
B4: DP47 S53P/G54D (other, name in Kabat numbering)
VH: EVQLLESGGGLVQPGGSLRLSCAASGFTFSSYAMSWVRQAPGKGLEWVSAISGPDGSTYYADSVKGRFTISRDNSKNTLYLQMNSLRAEDTAVYYCAKSYGAFDYWGQGTLVTVSS
B5: pA-C36 (other)
VH: EVQLLESGGGLVQPGGSLRLSCAASGVNVSHDSMTWVRQAPGKGLEWVSAIRGPNGSTYYADSVKGRFTISRDNSKNTLYLQMNSLRAEDTAVYYCASGARHADTERPPSQQTMPFWGQGTLVTVSS
notes: Frameworks of DP47d, ranges as for HEL4; also called pA-36
B6: anti-HSA VH clone #7 (other)
VH: EVQLLESGGGLVQPGGSLRLSCAASGFTFWKYNMAWVRQAPGKGLEWVSTILGEGNNTYYADSVKGRFTISRDNSKNTLYLQMNSLRAEDTAVYYCAKTMDYKFDYWGQGTLVTVSS
notes: As clone #1
B7: DP47 quadruple mutant F27D/F29V/S35G/Y32E (other, name in Kabat numbering)
VH: EVQLLESGGGLVQPGGSLRLSCAASGDTVSSEAMGWVRQAPGKGLEWVSAISGSGGSTYYADSVKGRFTISRDNSKNTLYLQMNSLRAEDTAVYYCAKSYGAFDYWGQGTLVTVSS
B8: pA-C59 (other)
VH: EVQLLESGGGLVQPGGSLRLSCAASGDSISDDYMAWVRQAPGKGLEWVSSIDDKNGSTYYADSVKGRFTISRDNSKNTLYLQMNSLRAEDTAVYYCAGGDGQAHKVDYWGQGTLVTVSS
notes: Frameworks of DP47d, ranges as for HEL4
B9: pA-C76 (other)
VH: EVQLLESGGGLVQPGGSLRLSCAASGDNVISDDMSWVRQAPGKGLEWVSTINGPSGSTYYADSVKGRFTISRDNSKNTLYLQMNSLRAEDTAVYYCAANGEDTDMLDMWGDRSAALKSWGQGTLVTVSS
notes: as for B8
B10: pA-C13 (other)
VH: EVQLLESGGGLVQPGGSLRLSCAASGDMVNDKDMSWVRQAPGKGLEWVSSISTENGSTYYADSVKGRFTISRDNSKNTLYLQMNSLRAEDTAVYYCAGVRDEVAMGENPDLSYWGQGTLVTVSS
notes: From the library made by diversifying the CDR loops of DP47d; frameworks of DP47d, ranges as for HEL4; also called Clone 13
B11: pA-C47 (other)
VH: EVQLLESGGGLVQPGGSLRLSCAASGYNITDENMAWVRQAPGKGLEWVSTIAADNGSTYYADSVKGRFTISRDNSKNTLYLQMNSLRAEDTAVYYCATTEAAGVEEDNVRSWGQGTLVTVSS
notes: as for B8

In the first assay the target is T1, protein A (UniProt P38507 37-477).
T1 construct: also called pA
Briefly: phage ELISA on protein A, heated 80 C against unheated, three data points. Background: In an ELISA, binding on a coated surface is turned into a signal by an enzyme label.
Description: (§1) After biotinylation of the phage, for each clone, a 100 μl sample of phage was transferred to a thin-wall PCR tube (and the remaining biotinylated phage was kept on ice). The tube was placed in a PCR apparatus for incubation at 80° C. during 10 min (temperature of cover lid: 85° C.). After heating, the tube was rapidly cooled down to 4° C. in the PCR apparatus.
(§2) ELISA plates were coated and blocked as described in Section 4. The samples were transferred to the empty wells of coated/blocked ELISA plates, and incubated for 2 hours at room temperature. Unbound phage was then removed by washing the wells 6-ties with PBS. For detection, Str-HRP (from a 1 mg/ml stock in PBS) were diluted 1/2000 in PBS supplemented with 2% v/v TWEEN 20 (Polyoxyethylensorbitan monolaurate; for protein A-based ELISA) or 2% w/v BSA (for protein L-based ELISA), and 100 μl of the resulting solution was added to each ELISA well. After incubation for 1 hour at room temperature, the unbound conjugate was removed by washing the wells 6-times with PBS. For colorimetric reaction, a 10 mg/ml solution of TMB (tetramethylbenzidine) was diluted 100-fold in a buffer of 0.1 M sodium acetate, pH 6.0. Next, hydrogen peroxyde was added (0.4 ul per ml of buffer/TMB, and 100 ul of this solution was added to each ELISA well. After color (blue) developed, the reaction was stopped by adding 50 μl of 1 M sulfuric acid per well (color turns to yellow). The optical density was recorded at 450 nm.
These clones were characterized for refoldability on phage (according to the protocol of Section 5, but with three data points being taken) and in solution.
Consider B1, for which the “Refoldability on phage (protein A binding retained after heating)” value (shortened to “Refoldability on phage”) is 62%.
Turning to B2, the “Refoldability on phage” value came out at 80%.
In the case of B3, the “Refoldability on phage” value stood at 81%.
For the molecule B4, the “Refoldability on phage” value worked out at 19%.
Take B5: the “Refoldability on phage” value is 80%.

The target in another assay is T2, human serum albumin (human, UniProt P02768 25-609).
T2 construct: also called HSA
T2 sequence (P02768 25-609 limits assumed): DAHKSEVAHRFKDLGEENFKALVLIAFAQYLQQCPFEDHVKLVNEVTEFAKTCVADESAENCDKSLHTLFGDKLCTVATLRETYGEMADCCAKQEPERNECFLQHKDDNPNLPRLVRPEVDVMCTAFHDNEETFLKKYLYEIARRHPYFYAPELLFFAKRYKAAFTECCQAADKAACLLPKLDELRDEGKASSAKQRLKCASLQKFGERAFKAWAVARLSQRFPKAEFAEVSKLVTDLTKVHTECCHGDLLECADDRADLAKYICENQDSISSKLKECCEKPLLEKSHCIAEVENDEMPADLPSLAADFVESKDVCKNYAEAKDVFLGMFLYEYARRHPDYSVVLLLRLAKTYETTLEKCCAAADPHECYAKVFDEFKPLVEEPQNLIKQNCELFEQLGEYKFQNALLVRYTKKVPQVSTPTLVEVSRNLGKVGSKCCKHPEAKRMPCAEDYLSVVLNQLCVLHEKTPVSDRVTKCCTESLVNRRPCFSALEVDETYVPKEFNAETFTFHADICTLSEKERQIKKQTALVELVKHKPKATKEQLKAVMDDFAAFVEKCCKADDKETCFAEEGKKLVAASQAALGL
Briefly: phage ELISA on HSA, heated against unheated.
Description: The ELISA wells were coated overnight at 4° C. with one of the following ligands: 10 μg/ml of protein A in PBS, 10 μg/ml of mAb 9E10 in PBS, or 3 mg/ml of HEL in 0.1 M NaHCO₃ buffer, pH 9.6. After blocking the wells with PBS containing 2% Tween-20 (PBST), a dilution series of phage in PBST was incubated for 2 h. After washing with PBS, bound phage were detected as follows. In assays for binding to REL, phage was detected directly using a conjugate of horseradish peroxidase with an anti-M13 monoclonal antibody (Amersham) using 3,3′,5,5′-tetramethylbenzidine as substrate. In assays for binding to protein A, the phage (4×10¹⁰ TU/ml in PBS) was first biotinylated at 4° C. with biotin-NHS (Perbio) (50 μM final concentration) and detected by sequential addition of streptavidin-horseradish peroxidase conjugate (1 μg/ml) (Sigma-Aldrich) in PBST, and substrate as above. In assays for binding to human serum albumin (USA) (Sigma, coating at 10 μg/ml in PBS), the ELISA was performed in PBS supplemented with 2% skim-milk powder (PBSM) and bound phage were detected in two steps using a rabbit anti-fd bacteriophage monoclonal antibody (Sigma, 1/1000 dilution) and goat anti-rabbit IgG serum conjugated with horseradish peroxidase (Sigma, 1/1000 dilution) and substrate as above.
As to B6, the “% HSA binding signal retained after heating” value is under 10%.

The next assay concerns the target T1, protein A. Briefly: phage ELISA on protein A, heated 80 C against unheated, titration (Section 5).
Description: as §1, §2
As to B3, the “% refolding (protein A binding retained after heating)” value (from here on “% refolding”) turned out to be 2.11%.
In the case of B7, the “% refolding” value was found to be 29.5%.
On to B5, for which the “% refolding” value was found to be 25%.
Regarding B8, the “% refolding” value was 25%.
In the case of B9, the “% refolding” value is 35%.
Regarding B10, the “% refolding” value turned out to be 35%.
Same read-out and setting: with B11 the figure was 25%.
